Measured values reported in article PMC3771946.

Tests used:
Assay in all cases: co-IP
[1] = target: Cx43-Y230H+ΔY265AY+ΔP283PGYKLV-GFP (S1+2+3) (rat) (UniProt P08050)
[2] = target: Cx43-ΔY265AY+ΔP283PGYKLV-GFP (S2+3) (rat) (UniProt P08050)
[3] = target: untagged Cx43-Y230H+F268A+Y286H (S1+2+3) (rat) (UniProt P08050)
[4] = target: Cx43-F268A+Y286H-GFP (S2+3) (rat) (UniProt P08050)
[5] = target: untagged Cx43-F268A+Y286H (S2+3) (rat) (UniProt P08050)
[6] = target: untagged Cx43-ΔY265AY+ΔP283PGYKLV (S2+3) (rat) (UniProt P08050)
[7] = target: Cx43-Y230H+F268A+Y286H-GFP (S1+2+3) (rat) (UniProt P08050)
[8] = target: untagged Cx43-Y230H+ΔY265AY+ΔP283PGYKLV (S1+2+3) (rat) (UniProt P08050)

amount coprecipitated, % of wild type, with m16 (% of wild type) [1]: < 10
amount coprecipitated, % of wild type, with m16 (% of wild type) [2]: < 10
amount coprecipitated, % of wild type, with m16 (% of wild type) [3]: < 10
amount coprecipitated, % of wild type, with m16 (% of wild type) [4]: < 10
amount coprecipitated, % of wild type, with m16 (% of wild type) [5]: < 10
amount coprecipitated, % of wild type, with m16 (% of wild type) [6]: < 10
amount coprecipitated, % of wild type, with m16 (% of wild type) [7]: < 10
amount coprecipitated, % of wild type, with m16 (% of wild type) [8]: < 10
Substance: clathrin (from UniProt Q00610 1-1675) (complex)
